The source of these data is PMC8542614 (Nature, 2021).

Read-outs that look alike come from different tables or passages of the source.

For assay [1], the target named is T1, HCV E2 ectodomain (eE2), full length, residues 384-656, genotype J6 (HCV genotype J6, N-linked glycans (fully glycosylated)). The assay is described as follows: ITC. On the technique in general: In ITC the heat of successive injections is recorded.
The target in assay [2] is T1, HCV E2 ectodomain (eE2), full length, …. The assay can be described thus: ITC. This is another data set of the same source.

B1: tamarin CD81 large extracellular loop (tCD81-LEL), residues 112-202, with plasmid-encoded N-terminal residues (domain or fragment)
chain: GFVNKDQIAKDVKQFYDQALQQAVVDDDANNAKAVVKTFHETLNCCGSSTLSALTTSMLKNNLCPSGSSIISNLFKEDCHQKIDELFSGKL
As usually defined, the Kd is the concentration at which binding is half-saturated. A low value points to higher affinity. The term stoichiometry N denotes the number of molecules, sites or subunits per partner or assembly. Regarding B1, in assay [1], the dissociation constant Kd came to 0.175 µM, the dH is -35.6 kJ/mol and the “stoichiometry N” value was found to be 0.67. Besides, in assay [2], the affinity, expressed as Kd, was 0.037 µM; the dH is -51.3 kJ/mol; the “stoichiometry N” value was 0.57.
